{"source": "patent US20250186503A1", "about": "“METHODS AND COMBINATIONS FOR TREATMENT AND T CELL MODULATION” (Juno Therapeutics, Inc., priority 2018, published 2025)", "test_system": "anti-BCMA CARs", "experiment": "Binding of BCMA-Fc fusion protein to CAR-expressing T cells (flow cytometry)", "procedure": "The clone encoding the human BCMA-Fc fusion construct with the N-terminal CD33 leader sequence (SEQ ID NO: 21) was inserted into an expression vector and expressed in HEK 293 cells. The resulting BCMA-Fc fusion protein was determined to have a purity of greater than 95% as assessed by gel permeation chromatography."}
{"molecule": "BCMA-Fc fusion protein: extracellular domain of human BCMA and a human IgG1 Fc connected with a linker (SEQ ID NO: 22) (protein, BCMA-Fc construct) MPLLLLLPLLWAGALAMLQMAGQCSQNEYFDSLLHACIPCQLRCSSNTPPLTCQRYCNASVTNSVKGTNAGGGGSPKSSDKTHTCPPCPAPEAEGAPSVFLFPPKPKDTLMISRTPEVTCVVVDVSHEDPEVKFNWYVDGVEVHNAKTKPREEQYNSTYRVVSVLTVLHQDWLNGKEYKCKVSNKALPSSIEKTISKAKGQPREPQVYTLPPSRDELTKNQVSLTCLVKGFYPSDIAVEWESNGQPENNYKTTPPVLDSDGSFFLYSKLTVDKSRWQQGNVFSCSVMHEALHNHYTQKSLSLSPGK", "values": [{"measurement": "binding to anti-BCMA CAR expressing T cells", "result": "specifically bound"}]}
